In this assay the target is HA-M2R-RLuc8 (M2 muscarinic receptor) (UniProt P08172). As to the kind of experiment: FRET or BRET. For orientation: BRET reads energy transfer from a luciferase to a nearby fluorophore.
Chain of UniProt P08172 (P08172 whole entry): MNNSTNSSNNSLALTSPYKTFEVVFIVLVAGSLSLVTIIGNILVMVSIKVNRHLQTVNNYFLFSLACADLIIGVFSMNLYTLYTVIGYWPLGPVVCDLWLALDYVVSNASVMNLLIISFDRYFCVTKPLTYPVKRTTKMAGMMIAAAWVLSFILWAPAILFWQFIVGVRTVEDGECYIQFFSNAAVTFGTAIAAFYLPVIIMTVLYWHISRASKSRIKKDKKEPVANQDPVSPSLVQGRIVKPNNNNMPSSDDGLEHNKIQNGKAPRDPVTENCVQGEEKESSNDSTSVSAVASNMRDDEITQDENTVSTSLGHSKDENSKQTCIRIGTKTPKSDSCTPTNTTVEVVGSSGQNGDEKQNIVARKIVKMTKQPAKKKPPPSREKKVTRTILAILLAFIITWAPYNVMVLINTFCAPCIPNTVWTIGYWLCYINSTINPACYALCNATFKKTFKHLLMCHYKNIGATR

As to “Venus-arrestin-3-Lys139Ile (on the Ala87Val base mutant) (natural protein)”, the fold increase of basal net BRET (against the A87V base mutant) is more than 3 fold.

These data come from article PMC5797668.
